# Experiments:
# HLA-A*24:03 [1] = assay: IEDB peptide-MHC binding, purified MHC/direct/fluorescence; filed as Kd, often an IC50 or EC50 that approximates it; ≥ and ≤ were set here for values at or beyond the usual limits of such assays
# HLA-A*23:01 = assay: as above
# HLA-B*58:01 = assay: IEDB peptide-MHC binding, purified MHC/competitive/fluorescence; filed as Kd, often an IC50 or EC50 that approximates it; ≥ and ≤ were set here for values at or beyond the usual limits of such assays
# HLA-C*12:03 = assay: IEDB peptide-MHC binding, purified MHC/direct/fluorescence; filed as Kd, often an IC50 or EC50 that approximates it; ≥ and ≤ were set here for values at or beyond the usual limits of such assays; details: source organism: Zaire ebolavirus
# HLA-A*02:12 = assay: as above
# HLA-A*02:03 = assay: as above; details: source organism: Zaire ebolavirus
# HLA-A*68:02 = assay: as above; details: source organism: Zaire ebolavirus
# HLA-A*02:16 = assay: as above
# HLA-A*03:01 = assay: as above
# HLA-A*02:19 = assay: as above
# HLA-A*69:01 [2] = assay: IEDB peptide-MHC binding, purified MHC/competitive/fluorescence; filed as Kd, often an IC50 or EC50 that approximates it; ≥ and ≤ were set here for values at or beyond the usual limits of such assays
# HLA-A*26:01 = assay: as above
# HLA-B*18:01 = assay: as above
# HLA-B*57:01 = assay: as above; details: source organism: Zaire ebolavirus
# HLA-B*39:01 = assay: as above
# HLA-A*02:01 [3] = assay: as above; details: source organism: Zaire ebolavirus
# HLA-B*27:03 = assay: as above
# HLA-A*29:02 = assay: IEDB peptide-MHC binding, purified MHC/direct/fluorescence; filed as Kd, often an IC50 or EC50 that approximates it; ≥ and ≤ were set here for values at or beyond the usual limits of such assays
# HLA-B*15:01 = assay: IEDB peptide-MHC binding, purified MHC/competitive/fluorescence; filed as Kd, often an IC50 or EC50 that approximates it; ≥ and ≤ were set here for values at or beyond the usual limits of such assays
# HLA-B*46:01 = assay: as above
# HLA-A*02:01 [4] = assay: IEDB peptide-MHC binding, purified MHC/direct/fluorescence; filed as Kd, often an IC50 or EC50 that approximates it; ≥ and ≤ were set here for values at or beyond the usual limits of such assays; details: source organism: Zaire ebolavirus
# HLA-B*15:17 = assay: IEDB peptide-MHC binding, purified MHC/competitive/fluorescence; filed as Kd, often an IC50 or EC50 that approximates it; ≥ and ≤ were set here for values at or beyond the usual limits of such assays; details: source organism: Zaire ebolavirus
# HLA-B*51:01 = assay: as above; details: source organism: Zaire ebolavirus
# HLA-B*08:01 = assay: IEDB peptide-MHC binding, purified MHC/competitive/fluorescence; ≥ and ≤ were set here for values at or beyond the usual limits of such assays; details: source organism: Sudan ebolavirus
# HLA-A*02:01 [5] = assay: as above; details: source organism: Sudan ebolavirus
# HLA-A*69:01 [6] = assay: IEDB peptide-MHC binding, purified MHC/direct/fluorescence; filed as Kd, often an IC50 or EC50 that approximates it; ≥ and ≤ were set here for values at or beyond the usual limits of such assays; details: source organism: Burkholderia mallei
# HLA-A*24:03 [7] = assay: IEDB peptide-MHC binding, purified MHC/competitive/fluorescence; filed as Kd, often an IC50 or EC50 that approximates it; ≥ and ≤ were set here for values at or beyond the usual limits of such assays; details: source organism: Pseudomonas aeruginosa PACS2
# [8] = source organism: Rickettsia sibirica 246
# [9] = source organism: Zaire ebolavirus
# [10] = source organism: Limestone Canyon virus
# [11] = source organism: Four Corners hantavirus
sequence,measurement,setting,value
MFSVYDYGF,Kd,HLA-A*24:03 [1]; [8],3 nM
same,Kd,HLA-A*23:01; [8],3 nM
STVADEIAF,Kd,HLA-B*58:01; source organism: Escherichia coli E22,1780 nM
IMYDHLPGF,Kd,HLA-C*12:03,306 nM
same,Kd,HLA-A*02:12; [9],≥ 20 µM
same,Kd,HLA-A*02:03,≥ 20 µM
same,Kd,HLA-A*68:02,≥ 20 µM
same,Kd,HLA-A*02:16; [9],≥ 20 µM
same,Kd,HLA-A*03:01; [9],≥ 20 µM
same,Kd,HLA-A*02:19; [9],≥ 20 µM
same,Kd,HLA-A*69:01 [2]; [9],≥ 20 µM
same,Kd,HLA-A*26:01; [9],≥ 20 µM
same,Kd,HLA-B*18:01; [9],≥ 20 µM
same,Kd,HLA-B*57:01,≥ 20 µM
same,Kd,HLA-B*58:01; [9],73.1 nM
same,Kd,HLA-B*39:01; [9],≥ 20 µM
same,Kd,HLA-A*02:01 [3],≥ 20 µM
same,Kd,HLA-B*27:03; [9],≥ 20 µM
KSAFYQSYL,Kd,HLA-A*29:02; [10],≥ 20 µM
same,Kd,HLA-A*02:12; [10],≥ 20 µM
same,Kd,HLA-A*02:16; [10],≥ 20 µM
same,Kd,HLA-A*03:01; [10],≥ 20 µM
same,Kd,HLA-A*02:19; [10],≥ 20 µM
same,Kd,HLA-A*69:01 [2]; [11],≥ 20 µM
same,Kd,HLA-A*26:01; [11],≥ 20 µM
same,Kd,HLA-B*18:01; [11],≥ 20 µM
same,Kd,HLA-B*58:01; [11],2.1 nM
same,Kd,HLA-B*39:01; [11],≥ 20 µM
same,Kd,HLA-B*15:01; [11],≥ 20 µM
same,Kd,HLA-B*46:01; [11],≥ 20 µM
same,Kd,HLA-B*27:03; [11],≥ 20 µM
FLYDRLAST,Kd,HLA-A*29:02; [9],≥ 20 µM
same,Kd,HLA-A*24:03 [1]; [9],≥ 20000 nM
same,Kd,HLA-A*02:01 [4],2.2 nM
same,Kd,HLA-A*03:01; [9],≥ 20 µM
same,Kd,HLA-A*23:01; [9],≥ 20000 nM
same,Kd,HLA-A*69:01 [2]; [9],≥ 20 µM
same,Kd,HLA-A*26:01; [9],≥ 20 µM
same,Kd,HLA-B*15:17,≥ 20 µM
same,Kd,HLA-B*18:01; [9],≥ 20 µM
same,Kd,HLA-B*57:01,≥ 20 µM
same,Kd,HLA-B*15:01; [9],≥ 20 µM
same,Kd,HLA-B*51:01,≥ 20 µM
same,Kd,HLA-B*46:01; [9],≥ 20 µM
same,Kd,HLA-B*27:03; [9],≥ 20 µM
same,IC50,HLA-B*08:01,40.6 µM
same,IC50,HLA-A*02:01 [5],887 nM
IYQARFMKY,Kd,HLA-A*69:01 [6],≥ 20 µM
same,Kd,HLA-A*24:03 [7],0.8 nM

# Reference: the Immune Epitope Database (IEDB)
